# Test results as given in patent publication US20260152561A1.
# Tests used:
# [1] = biological target: MICA/MICB on tumor cells (MGC-803, U2OS); assay: cell-based or functional assay
# [2] = biological target: PD-L1 on tumor cells (EMT6-PD-L1, U2OS) (UniProt Q9NZQ7); assay: cell-based or functional assay
# UniProt Q9NZQ7, sequence (Q9NZQ7 19-290 limits assumed): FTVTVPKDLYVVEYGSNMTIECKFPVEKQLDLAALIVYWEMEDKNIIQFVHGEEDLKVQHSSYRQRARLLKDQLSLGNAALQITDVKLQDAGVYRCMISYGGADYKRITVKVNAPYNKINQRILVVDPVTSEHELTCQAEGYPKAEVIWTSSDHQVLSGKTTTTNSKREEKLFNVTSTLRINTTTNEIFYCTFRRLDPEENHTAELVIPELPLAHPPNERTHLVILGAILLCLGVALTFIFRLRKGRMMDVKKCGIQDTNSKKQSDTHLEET
substance,measurement,setting,value
"dual-targeting chimeric antigen receptor PD1-DAP10-41BB-P2A-NKG2D-IgG4-CD28-41BB-CD3ζ, expressed on NK92 cells (PN-CAR-NK92)","cytotoxicity (luciferase killing assay, effector-to-target ratio 5:1) on U2OS cells",[1],6 fold
same,"cytotoxicity (luciferase killing assay, effector-to-target ratio 5:1) on U2OS cells",[2],6 fold
